From patent US20090304651A1 (published 2009) come the findings set out here.

B1: wild type IGF2R domain 11 (amino acids 1511-1650) with C-terminal His6 tag, from Pichia pastoris (receptor)
chain: NEHDDCQVTNPSTGHLFDLSSLSGRAGFTAAYSEKGLVYMSICGENENCPPGVGACFGQTRISVGKANKRLRYVDQVLQLVYKDGSPCPSKSGLSYKSVISFVCRPEAGPTNRPMLISLDKQTCTLFFSWHTPLACEQATHHHHHH
notes: also called WT; wild type domain 11
B2: IGF2R domain 11 E1544A (amino acids 1511-1650, C-terminal His6 tag, from Pichia pastoris) (receptor)
chain: B1 chain with E34A
B3: IGF2R domain 11 E1544K (amino acids 1511-1650, C-terminal His6 tag, from Pichia pastoris) (receptor)
chain: B1 chain with E34K
notes: also called enhanced mutant

Positions count from the first letter of the chain named. Names and notes keep the numbering of the source.

For the first assay, the target named is T1, recombinant human IGF-II (Insulin-like Growth Factor II) (human, UniProt P01344 25-91, biotinylated (Biotinyl-IGF-II, GroPep) where immobilised in SPR, site not stated; not biotinylated in ITC and as SPR analyte).
T1 construct: also called IGF2; IGF-2
T1 sequence (P01344 25-91 limits assumed): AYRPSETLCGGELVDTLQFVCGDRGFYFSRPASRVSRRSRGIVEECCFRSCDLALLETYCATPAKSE
The assay can be described thus: SPR, IGF-II immobilised, kinetic fit. The protocol:
(§1) Duplicate analyte injections were performed at concentrations of 4096, 2048, 1024, 512, 256, 128, 64, 32, 16 and 8 nM.
(§2) Kinetic analysis by Surface Plasmon Resonance (SPR) was conducted on a BIAcore 3000 biosensor (BIAcore, Uppsala, Sweden) at 25° C. in HBS-EP (10 mM HEPES, pH 7.4, 150 mM NaCl, 3 mM EDTA, 0.005% surfactant P20) at a flow rate of 40 μl/min. […] Kinetic experiments consisted of a two minute injection of analyte followed by a 100 s dissociation phase in running buffer, after which the binding surface was regenerated with a 2 minute injection of 2 M MgCl₂. A blank flow cell was used for in-line reference subtraction of changes due to differences in refractive index of running buffer versus sample and a buffer-only injection was used to subtract instrument noise and drift. Injections were performed in duplicate for each concentration and in a randomised order. Kinetic parameters were determined by global fitting of sensorgrams to a two-state (conformational change) binding model using BIAevaluation software version 4.0.1. In all cases the minor component made an insignificant contribution to the overall affinity and as such only the kinetic parameters of the major binding component were used. For each interaction the dissociation affinity constant (KD) was also calculated by fitting of the response of each concentration at equilibrium to a steady-state affinity model using BIAevaluation.
Background: In SPR one partner is held on a chip, and binding of the other changes the refractive index at the surface.
With B1, the Kd – broadly, the constant that tells how readily two partners part at equilibrium – was determined as 102 nM; the koff (commonly the rate constant with which the complex falls apart) worked out at 0.053 s⁻¹; the association rate constant (kon) (commonly a measure of how fast the partners come together) amounted to 525000 M⁻¹ s⁻¹.

As to B2, the dissociation constant Kd is 35.9 nM, the dissociation rate constant (koff) was found to be 0.033 s⁻¹ and the kon was 934000 M⁻¹ s⁻¹.

On to B3, for which the Kd turned out to be 15.2 nM, the off-rate (koff) stood at 0.023 s⁻¹ and the on-rate constant (kon) worked out at 1.52e+06 M⁻¹ s⁻¹.

For a further assay, the target named is T1, recombinant human IGF-II (Insulin-like …). The assay can be described thus: SPR, steady-state KD relative to wild type. The protocol: as §1, §2
For the molecule B1, the “Relative Affinity” value is 1 fold (wild type = 1.00).

On to B2, for which the “Relative Affinity” value is 2.79 fold (wild type = 1.00).

Consider B3, for which the “Relative Affinity” value was 6.12 fold (wild type = 1.00).

The next assay has the same target. As to the kind of experiment: SPR, IGF-II immobilised, kinetic fit. The source holds these as a separate data set. The procedure, abridged: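 Domain 11 proteins made in Pichia pastoris and purified by His-tag were passed in duplicate, in random order, over ~50 RU of biotinylated IGF-II bound to a streptavidin Sensor Chip SA on a BIAcore 3000 (25° C, HBS-EP, 40 μl/min, 2 min injections, 100 s dissociation, 2 M MgCl₂ regeneration), at 4096–8 nM, or 16384–32 nM for three constructs. Kinetic rate constants and Kd were derived by global sensorgram fitting in BIAevaluation 4.0.1, with blank-flow-cell and buffer-injection signals subtracted first.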
As to B1, the Kd stood at 119 nM, the koff was found to be 0.0787 s⁻¹ and the on-rate constant (kon) came out at 662000 M⁻¹ s⁻¹.

As to B2, the Kd came out at 45.5 nM, the koff was found to be 0.0558 s⁻¹ and the kon was 1.23e+06 M⁻¹ s⁻¹.

On to B3, for which the Kd was 20.5 nM, the koff is 0.0406 s⁻¹ and the kon was 2.02e+06 M⁻¹ s⁻¹.

The target is the same in a further assay. As to the kind of experiment: SPR, IGF-II immobilised, steady state. The protocol: as §1, §2
Consider B1, for which the Kd is 103 nM.

As to B2, the dissociation constant (Kd) was 37 nM.

As to B3, the Kd was determined as 16.9 nM.

For another assay the target is unchanged. The assay can be described thus: SPR (Biacore).
Take B1: the Kd came out at 103 nM.

Take B2: the dissociation constant Kd was found to be 37 nM.

As to B3, the Kd was 16.9 nM.

Another assay shares this target. As to the kind of experiment: SPR, steady-state KD relative to wild type. The source holds these as a separate data set. The procedure, abridged:
(§3)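 Domain 11 proteins were secreted from Pichia pastoris, purified by His-tag and injected in duplicate over about 50 RU of biotinylated IGF-II captured on a streptavidin Sensor Chip SA in a BIAcore 3000 at 25° C, in HBS-EP at 40 μl/min with 2 min injections. Analyte concentrations spanned 4096–8 nM, or 16384–32 nM for three constructs, and blank-flow-cell and buffer-injection signals were subtracted. Kd was obtained in BIAevaluation by fitting the equilibrium response at each concentration to a steady-state affinity model.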
Turning to B1, the “Relative Affinity” value is 1 fold (wild type = 1.00).

B2: the “Relative Affinity” value was 2.79 fold (wild type = 1.00).

As for B3, the “Relative Affinity” value was 6.12 fold (wild type = 1.00).

The target is the same in another assay. The assay can be described thus: ITC, IGF-II titrated into domain 11. On the procedure: Calorimetric measurements were performed using a VP-ITC microcalorimeter (MicroCal). All solutions were thoroughly degassed before use by stirring under vacuum. […] The sample cell contained either wild type domain 11 (7 uM) or the E1544A mutant (8 μM), also in HBS-E buffer. To correct for the heat effects of dilution and mixing, reaction heats obtained from a control experiment, in which IGF2 was injected into HBS-E, were subtracted. Calorimetric data were analysed using MicroCal ORIGIN software (version 5.0) supplied with the instrument. Thermodynamic parameters were derived by fitting the binding isotherms to a single-site binding model. Values for dissociation affinity constants (KD) were determined from duplicate experiments.
In order to validate the SPR sensorgram data, ITC was used to assess the binding affinity between domain 11 and IGF-II. The affinity of the E1544A mutant was also assessed by ITC in order to confirm whether use of a second technique agreed as to the apparent increase in affinity (FIG. 6 and Table 6). Titrations were performed using 17×15 μl injections of 40 μM IGF-II (after an initial 7.51 injection) into the reaction cell containing wild type domain 11 or the E1544A mutant. […] The two fold differences may be simply accounted for by the fidelity of both techniques.
For orientation: ITC needs no label: the signal is the heat of the interaction.
Regarding B1, the Kd was 150 nM.

As for B2, the dissociation constant Kd worked out at 81.4 nM.

For B3, the Kd was 26.4 nM.

The next assay shares this target. As to the kind of experiment: SPR, IGF-II immobilised, steady state. This is another data set of the same source. Summed up:
as §3
Regarding B1, the Kd stood at 103 nM.

As for B2, the Kd is 37 nM.

Regarding B3, the dissociation constant Kd was found to be 16.9 nM.
